Measured values from patent US12145975B2, “Fusion proteins for the treatment of cardiometabolic diseases” (Shattuck Labs, Inc., priority 2022, dated 2024).

T1: recombinant human GDF-8 (Homo sapiens, UniProt O14793)
T1 sequence (O14793 267-375): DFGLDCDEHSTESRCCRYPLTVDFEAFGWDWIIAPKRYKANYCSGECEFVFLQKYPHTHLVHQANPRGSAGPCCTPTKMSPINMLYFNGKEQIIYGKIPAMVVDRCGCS

T2: recombinant human Activin A (Homo sapiens, UniProt P08476)
T2 sequence (P08476 311-426): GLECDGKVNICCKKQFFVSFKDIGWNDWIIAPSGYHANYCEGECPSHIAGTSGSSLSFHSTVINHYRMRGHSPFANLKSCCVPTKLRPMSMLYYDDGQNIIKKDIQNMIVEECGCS

T3: GIP receptor (GIPR) (Rattus norvegicus, UniProt P43219)
T3 construct: endogenous in cells; host or cells: rat INS-1 insulinoma cells (derivatives with a cAMP-luciferase reporter or pGloSensor-22F)
T3 sequence (P43219 19-455): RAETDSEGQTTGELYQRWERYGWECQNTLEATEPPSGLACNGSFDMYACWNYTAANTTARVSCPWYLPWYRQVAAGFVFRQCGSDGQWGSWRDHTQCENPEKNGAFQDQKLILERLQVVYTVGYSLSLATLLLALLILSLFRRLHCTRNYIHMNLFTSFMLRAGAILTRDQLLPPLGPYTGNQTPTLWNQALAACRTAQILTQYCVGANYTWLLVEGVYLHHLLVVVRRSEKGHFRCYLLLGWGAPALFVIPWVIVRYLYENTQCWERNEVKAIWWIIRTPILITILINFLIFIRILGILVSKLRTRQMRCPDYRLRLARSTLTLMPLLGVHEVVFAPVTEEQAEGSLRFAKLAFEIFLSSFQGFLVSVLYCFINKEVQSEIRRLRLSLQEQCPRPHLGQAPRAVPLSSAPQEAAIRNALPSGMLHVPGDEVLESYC

B1: GIP(Ag)-Fc-FGF19: chimeric protein: GIP fused to FGF19 via IgG1 hinge-CH2-CH3 Fc domain; SEQ ID NO: 88 (protein)
chain: YAEGTFISDYSIAMDKIHQQDFVNWLLAQKGKKNDWKHNITQPCPAPEAAGGPSVFLFPPKPKDTLMISRTPEVTCVVVDVSHEDPEVKFNWYVDGVEVHNAKTKPREEQYNSTYRVVSVLTVLHQDWLNGKEYKCKVSNKALPAPIEKTISKAKGQPREPQVYTLPPSRDELTKNQVSLTCLVKGFYPSDIAVEWESNGQPENNYKTTPPVLDSDGSFFLYSKLTVDKSRWQQGNVFSCSVMHEALHNHYTQKSLSLSPGKIEGRMDRDSSPLVHYGWGDPIRLRHLYTSGPHGLSSCFLRIRADGVVDCARGQSAHSLLEIKAVALRTVAIKGVHSVRYLCMGADGKMQGLLQYSEEDCAFEEEIRPDGYNVYRSEKHRLPVSLSSAKQRQLYKNRGFLPLSHFLPMLPMVPEEPEDLRGHLESDMFSSPLETDSMDPFGLVTGLEAVRSPSFEK

Key:
recombinant human GDF-8 = target: T1, recombinant human GDF-8; experiment: MSD platform-based binding assay to plate-bound GDF-8; settings: anti-human Fc detection
Description: (§1) The binding by a recombinant human ACVR2B-Fc fusion protein to GDF-8 (also known as myostatin) was characterized using a Meso Scale Discovery (MSD) platform-based assay. Briefly, GDF-8 was coated on a plate and 8× serial dilutions of the purified recombinant human ACVR2B-Fc fusion protein were also added in a series of wells. The protein captured by the plate-bound GDF-8 was detected using an anti-human Fc antibody and a SULFO-TAG conjugated secondary antibody.
(§2) The binding to GDF-8 by the GLP-1-Fc-ACVR2B fusion protein produced using the mmRNA constructs was investigated using a Meso Scale Discovery (MSD) platform-based assay. Briefly, HEK293T cells were transfected with each mRNA construct using lipofectamine 2000, and culture supernatants were collected after 48 hours. GDF-8 was coated on a plate, and 3× serial dilutions of the culture supernatants were added to the plate for capture by the plate-bound GDF-8. The protein captured by the plate-bound GDF-8 was detected using an anti-human Fc antibody and a SULFO-TAG conjugated secondary antibody. The MSD signals generated by the culture supernatants of HEK293T cells transfected with different mmRNA constructs were plotted as a line graph.

[1] = target: T2, recombinant human Activin A; experiment: MSD platform-based binding assay to plate-bound Activin A; settings: anti-human Fc detection
Description: as §1, with “to activin A” for “to GDF-8”, “as Inhibin beta A)” for “as myostatin)”, “Briefly, Activin A” for “Briefly, GDF-8”, “plate-bound Activin A” for “plate-bound GDF-8”
as §2, with “Activin A” for “GDF-8”, “Activin A.” for “GDF-8.”

[2] = test system: rat insulinoma INS-1 cells; experiment: in vitro glucose-stimulated insulin secretion (GSIS) in rat insulinoma INS-1 cells; type: cell-based; settings: 1 hour glucose, then 2 hour incubation; ELISA; FIG. 4B
Excerpt: X is a known inducer of GSIS.

GIP receptor (GIPR) = target: T3, GIP receptor (GIPR); experiment: cAMP-Glo assay in rat insulinoma INS-1 cells harboring a cAMP-luciferase reporter gene; type: cell-based; settings: 1 hour glucose, then 2 hour incubation with increasing amounts; FIG. 4A
Excerpt: Rat insulinoma INS-1 cells harboring a cAMP-luciferase reporter gene were used to study the activation of GIPR. Without wishing to be bound by theory, the activation of GIPR leads to temporary depletion of ATP because of consumption of ATP in cyclization reaction to produce cAMP as well as by phosphorylation by protein kinase A of its substrate. Without wishing to be bound by theory, the temporary depletion of ATP leads to an inhibition of luciferase activity, which needs ATP as a substrate.

Row | Molecule | binding to GDF-8 (recombinant human GDF-8) | binding to Activin A [1] | insulin in the culture supernatant (glucose-stimulated insulin secretion) [2] | inhibition of luciferase (activation of GIPR) (GIP receptor (GIPR))
1 | GLP-1-Fc-ACVR2B: GLP-1 fused to extracellular domain of ACVR2B via IgG1 Fc domain; SEQ ID NO: 154; tested as culture supernatant of mmRNA-transfected HEK293T cells | binds to the human GDF-8 | binds to the human Activin A | – | –
2 | B1 | – | – | stimulated insulin production to a similar, if not greater magnitude than dulaglutide or tirzepatide | dose-dependent and saturable inhibition of luciferase with similar potency
